# B1: flag-tagged Ufd4 (^fUfd4), purified (enzyme, S. cerevisiae, UniProt P33202 1-1483, looked up)
# chain: MSENNSHNLDEHESHSENSDYMMDTQVEDDYDEDGHVQGEYSYYPDEDEDEHMLSSVGSFEADDGEDDDNDYHHEDDSGLLYGYHRTQNGSDEDRNEEEDGLERSHDNNEFGSNPLHLPDILETFAQRLEQRRQTSEGLGQHPVGRTLPEILSMIGGRMERSAESSARNERISKLIENTGNASEDPYIAMESLKELSENILMMNQMVVDRIIPMETLIGNIAAILSDKILREELELQMQACRCMYNLFEVCPESISIAVDEHVIPILQGKLVEISYIDLAEQVLETVEYISRVHGRDILKTGQLSIYVQFFDFLTIHAQRKAIAIVSNACSSIRTDDFKTIVEVLPTLKPIFSNATDQPILTRLVNAMYGICGALHGVDKFETLFSLDLIERIVQLVSIQDTPLENKLKCLDILTVLAMSSDVLSRELREKTDIVDMATRSFQHYSKSPNAGLHETLIYVPNSLLISISRFIVVLFPPEDERILSADKYTGNSDRGVISNQEKFDSLVQCLIPILVEIYTNAADFDVRRYVLIALLRVVSCINNSTAKAINDQLIKLIGSILAQKETASNANGTYSSEAGTLLVGGLSLLDLICKKFSELFFPSIKREGIFDLVKDLSVDFNNIDLKEDGNENISLSDEEGDLHSSIEECDEGDEEYDYEFTDMEIPDSVKPKKISIHIFRTLSLAYIKNKGVNLVNRVLSQMNVEQEAITEELHQIEGVVSILENPSTPDKTEEDWKGIWSVLKKCIFHEDFDVSGFEFTSTGLASSITKRITSSTVSHFILAKSFLEVFEDCIDRFLEILQSALTRLENFSIVDCGLHDGGGVSSLAKEIKIKLVYDGDASKDNIGTDLSSTIVSVHCIASFTSLNEFLRHRMVRMRFLNSLIPNLTSSSTEADREEEENCLDHMRKKNFDFFYDNEKVDMESTVFGVIFNTFVRRNRDLKTLWDDTHTIKFCKSLEGNNRESEAAEEANEGKKLRDFYKKREFAQVDTGSSADILTLLDFLHSCGVKSDSFINSKLSAKLARQLDEPLVVASGALPDWSLFLTRRFPFLFPFDTRMLFLQCTSFGYGRLIQLWKNKSKGSKDLRNDEALQQLGRITRRKLRISRKTIFATGLKILSKYGSSPDVLEIEYQEEAGTGLGPTLEFYSVVSKYFARKSLNMWRCNSYSYRSEMDVDTTDDYITTLLFPEPLNPFSNNEKVIELFGYLGTFVARSLLDNRILDFRFSKVFFELLHRMSTPNVTTVPSDVETCLLMIELVDPLLAKSLKYIVANKDDNMTLESLSLTFTVPGNDDIELIPGGCNKSLNSSNVEEYIHGVIDQILGKGIEKQLKAFIEGFSKVFSYERMLILFPDELVDIFGRVEEDWSMATLYTNLNAEHGYTMDSSIIHDFISIISAFGKHERRLFLQFLTGSPKLPIGGFKSLNPKFTVVLKHAEDGLTADEYLPSVMTCANYLKLPKYTSKDIMRSRLCQAIEEGAGAFLLS
# Molecular target: N-terminally flag-tagged Ubr1 (^fUbr1), full length (S. cerevisiae, UniProt P19812 1-1950)
# Test: co-IP
# N-terminally flag-tagged Ubr1 (^fUbr1), full length, sequence (P19812 whole entry): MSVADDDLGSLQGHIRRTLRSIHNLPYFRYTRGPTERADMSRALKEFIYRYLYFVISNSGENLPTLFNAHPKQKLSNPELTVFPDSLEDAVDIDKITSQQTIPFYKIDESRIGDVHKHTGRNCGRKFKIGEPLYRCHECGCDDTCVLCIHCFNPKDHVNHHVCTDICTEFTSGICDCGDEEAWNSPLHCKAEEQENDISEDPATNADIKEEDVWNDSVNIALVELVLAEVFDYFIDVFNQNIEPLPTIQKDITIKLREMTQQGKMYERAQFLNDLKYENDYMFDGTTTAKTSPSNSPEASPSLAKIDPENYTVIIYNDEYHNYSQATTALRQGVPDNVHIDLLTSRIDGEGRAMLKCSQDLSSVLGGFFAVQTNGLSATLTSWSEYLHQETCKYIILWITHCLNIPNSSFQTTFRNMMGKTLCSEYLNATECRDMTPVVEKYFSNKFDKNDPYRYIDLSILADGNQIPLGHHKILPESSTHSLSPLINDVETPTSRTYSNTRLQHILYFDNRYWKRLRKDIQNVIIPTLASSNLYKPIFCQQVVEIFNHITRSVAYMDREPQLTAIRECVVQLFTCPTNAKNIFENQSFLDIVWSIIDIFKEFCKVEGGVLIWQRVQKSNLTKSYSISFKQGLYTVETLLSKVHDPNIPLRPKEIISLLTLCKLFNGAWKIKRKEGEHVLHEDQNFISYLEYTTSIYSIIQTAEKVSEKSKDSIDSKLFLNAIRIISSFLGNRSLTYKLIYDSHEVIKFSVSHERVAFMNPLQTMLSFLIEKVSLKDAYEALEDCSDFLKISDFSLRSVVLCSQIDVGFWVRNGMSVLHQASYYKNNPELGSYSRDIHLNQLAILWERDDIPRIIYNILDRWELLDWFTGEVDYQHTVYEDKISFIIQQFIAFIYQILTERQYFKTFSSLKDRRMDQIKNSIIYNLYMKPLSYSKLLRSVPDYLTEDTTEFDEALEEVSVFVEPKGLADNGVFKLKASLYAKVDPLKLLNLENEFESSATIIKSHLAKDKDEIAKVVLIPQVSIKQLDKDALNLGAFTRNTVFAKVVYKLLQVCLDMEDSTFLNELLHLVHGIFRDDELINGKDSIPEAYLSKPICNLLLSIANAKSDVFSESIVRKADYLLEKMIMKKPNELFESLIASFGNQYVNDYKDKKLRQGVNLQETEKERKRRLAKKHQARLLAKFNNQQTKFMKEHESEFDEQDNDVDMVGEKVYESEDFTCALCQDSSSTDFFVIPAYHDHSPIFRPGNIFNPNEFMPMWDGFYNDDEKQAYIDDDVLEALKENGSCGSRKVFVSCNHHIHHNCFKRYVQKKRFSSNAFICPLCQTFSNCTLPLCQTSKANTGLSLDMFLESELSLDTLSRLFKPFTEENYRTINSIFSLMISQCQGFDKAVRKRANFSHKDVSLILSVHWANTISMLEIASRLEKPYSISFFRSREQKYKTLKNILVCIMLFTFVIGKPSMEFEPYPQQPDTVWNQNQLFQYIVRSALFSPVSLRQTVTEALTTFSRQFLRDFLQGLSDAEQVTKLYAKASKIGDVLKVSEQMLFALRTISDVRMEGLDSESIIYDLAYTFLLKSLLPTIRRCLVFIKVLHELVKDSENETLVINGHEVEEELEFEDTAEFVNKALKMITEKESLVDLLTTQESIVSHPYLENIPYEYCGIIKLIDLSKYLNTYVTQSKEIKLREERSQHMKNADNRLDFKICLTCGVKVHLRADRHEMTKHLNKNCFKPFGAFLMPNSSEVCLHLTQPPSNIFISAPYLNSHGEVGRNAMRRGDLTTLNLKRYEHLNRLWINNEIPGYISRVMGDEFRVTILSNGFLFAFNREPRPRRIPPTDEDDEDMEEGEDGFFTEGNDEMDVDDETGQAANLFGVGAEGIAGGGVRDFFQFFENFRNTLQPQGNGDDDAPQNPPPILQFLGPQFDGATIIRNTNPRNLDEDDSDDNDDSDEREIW
binder,measurement,value
B1,binding result,binds

# Source: article PMC3003441 (Nature cell biology, 2010)
